Molecular target: alpha-thrombin (UniProt P00734;P00734 328-363;364-622)
Assay: SPR imaging

Binder: AGTCCGTGGTAGGGCAGGTTGGGGTGACTTTTTTTTTTTTTTTT (ssDNA, 3'-NH2, surface-attached to pGlu-MUAM on gold) [Da thrombin aptamer]
- binding result: binds

From publication PMC3093654
